From PMC5987714 (The Journal of Cell Biology, 2018)

T1: mCherry-CAV1^FL (caveolin-1, full length, amino acids 1–178) in cell-free caveolae (UniProt Q03135 1-178)
T1 sequence: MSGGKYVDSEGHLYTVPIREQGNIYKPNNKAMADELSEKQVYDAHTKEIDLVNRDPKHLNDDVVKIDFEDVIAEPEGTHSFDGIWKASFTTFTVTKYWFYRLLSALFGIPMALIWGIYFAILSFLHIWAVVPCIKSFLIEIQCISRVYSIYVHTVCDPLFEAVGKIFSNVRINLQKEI

T2: mCherry-CAV1^Y14-p (CAV1 + ABL1 coexpression) (UniProt Q03135 1-178)
T2 sequence: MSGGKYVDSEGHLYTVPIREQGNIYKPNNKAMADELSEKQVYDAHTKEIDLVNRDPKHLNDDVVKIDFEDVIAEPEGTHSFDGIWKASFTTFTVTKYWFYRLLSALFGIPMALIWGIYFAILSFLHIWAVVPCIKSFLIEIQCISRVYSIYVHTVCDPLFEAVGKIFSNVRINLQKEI


Tests used:
TRAF2 = TRAF2 (UniProt Q12933); test: two-color single-molecule coincidence; settings: reference: no ABL1; sites Y14
[1] = molecular target: T1, mCherry-CAV1^FL (caveolin-1, full …); test: two-color single-molecule fluorescence coincidence
[2] = molecular target: T2, mCherry-CAV1^Y14-p (CAV1 + ABL1 …); test: two-color single-molecule fluorescence coincidence

Row | Molecule | other: position of coincidence peak (TRAF2) | coincidence C = mCherry/(GFP+mCherry), Gaussian peak [1] | coincidence C = mCherry/(GFP+mCherry), Gaussian peak [2] | stoichiometry N [2]
1 | CAV1 (caveolin-1; cell-free and transfected constructs) 1-178 (from UniProt Q03135) untagged ABL1 coexpressed | stronger; reference 0.75 |  |  | 
2 | GFP-TRAF2 (TNF receptor–associated factor 2), cell-free (natural protein) MAAASVTPPGSLELLQPGFSKTLLGTKLEAKYLCSACRNVLRRPFQAQCGHRYCSFCLASILSSGPQNCAACVHEGIYEEGISILESSSAFPDNAARREVESLPAVCPSDGCTWKGTLKEYESCHEGRCPLMLTECPACKGLVRLGEKERHLEHECPERSLSCRHCRAPCCGADVKAHHEVCPKFPLTCDGCGKKKIPREKFQDHVKTCGKCRVPCRFHAIGCLETVEGEKQQEHEVQWLREHLAMLLSSVLEAKPLLGDQSHAGSELLQRCESLEKKTATFENIVCVLNREVERVAMTAEACSRQHRLDQDKIEALSSKVQQLERSIGLKDLAMADLEQKVLEMEASTYDGVFIWKISDFARKRQEAVAGRIPAIFSPAFYTSRYGYKMCLRIYLNGDGTGRGTHLSLFFVVMKGPNDALLRWPFNQKVTLMLLDQNNREHVIDAFRPDVTSSSFQRPVNDMNIASGCPLFCPVSKMEAKNSYVRDDAIFIKAIVDLTGL |  | 0.75 | 0.6 | ~1 mCherry-CAV1:GFP-TRAF2
